System: MS2 coat protein
Assay: apparent KD of MS2 coat protein; higher = weaker reporter binding
Settings: Eterna round: R107
How it was run: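 Designed RNA switches were transcribed on-chip from Illumina sequencing clusters. SNAP-549-labelled MS2 coat protein was titrated onto them in twofold steps from 0.7 or 1.5 nM to 3 µM in 100 mM Tris-HCl pH 7.5, 80 mM KCl, 4 mM MgCl2, either without or with constant ligand. Apparent KD reflects the per-design median of normalised cluster binding-curve fits.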

[1] = input ligand: theophylline 20 uM
[2] = input ligand: tryptophan 2.4 mM
[3] = input ligand: theophylline 2 mM

AGACAUGAGGAUCACCCAUGUAGUAUGGAUACCAGAUGUAGAUUAGUCCCUUGGCAGCUGUGGUGAAGUGAUGCAUUGCUCCUAG [Exclusion - Theophylline A (Freestyle 1)]
apparent KD of MS2 coat protein (input ligand: arginine 13.2 mM): 19.5 nM | apparent KD of MS2 coat protein [1]: 36.4 nM | apparent KD of MS2 coat protein [2]: 23.2 nM

AAGCUUCGCAUAGGAAAACUAUGUGAAGCUCGAGGACCGGUACGGCCGCCACUCGUCCUCAACAUGAGGAUCACCCAUGUAAUAA [Mat - Exclusion - Trytophan A - D2]
apparent KD of MS2 coat protein (input ligand: arginine 13.2 mM): 20.7 nM | apparent KD of MS2 coat protein [1]: 28.6 nM | apparent KD of MS2 coat protein [3]: 25.9 nM

AUACGGCGGUAAAAUCAGAGAGUAAAAGAUACCAGCAAUAAUAAAUGCCCUUGGCAGCUUCUGACAUGAGGAUCACCCAUGUAAA [theeternabot_exclusion_MS2_Theo_A_49]
apparent KD of MS2 coat protein (input ligand: arginine 13.2 mM): 15.7 nM | apparent KD of MS2 coat protein [1]: 18 nM | apparent KD of MS2 coat protein [2]: 15 nM

UUAUUUAUAAUGGAUACCAGUCGUAUGGCCCGGCAUCCUGACAUGAGGAUCACCCAUGUCGACCCUUGGCAGCUGUUAUGGGUUU [XTheo B #21]
apparent KD of MS2 coat protein (input ligand: arginine 13.2 mM): 14.9 nM | apparent KD of MS2 coat protein [1]: 17 nM | apparent KD of MS2 coat protein [2]: 13.8 nM

GGUUGGUGUAGAGAUAUAUUGAUUACUGAAGGAGCGGGAACAAACCCAGGUAGGUCGCAGAGAUCCACAUGAGGAUCACCCAUGU [!0.N]
apparent KD of MS2 coat protein (input ligand: arginine 13.2 mM): 35.2 nM | apparent KD of MS2 coat protein (input ligand: none): 31.6 nM | apparent KD of MS2 coat protein [1]: 58.3 nM | apparent KD of MS2 coat protein [3]: 39.3 nM | apparent KD of MS2 coat protein [2]: 41.5 nM

UGCCUAGACGUGGAUUACCCGUGUACCGAAGGAGCGCCCGAAAGGGCAGGUAGGUCGCGGAGGACAUGAGGAUCACCCAUGUUUG
apparent KD of MS2 coat protein (input ligand: arginine 13.2 mM): 44.8 nM | apparent KD of MS2 coat protein (input ligand: none): 117 nM | apparent KD of MS2 coat protein [1]: 123 nM | apparent KD of MS2 coat protein [3]: 134 nM | apparent KD of MS2 coat protein [2]: 88.5 nM

AACAUGAGGAUCACCCAUGUGUCCUCGAAACGAGGACCGGUACGGCCGCCACUCGAAUAAGGUGUUGACGAAAAGUCAGCACCAA [Mat - Exclusion - Trytophan A - D17]
apparent KD of MS2 coat protein (input ligand: arginine 13.2 mM): 111 nM | apparent KD of MS2 coat protein [1]: 314 nM | apparent KD of MS2 coat protein [3]: 338 nM

GUGUGGCGCUCGGCCGCCACUCAGACAUGAGGAUCACCCAUGUAGAACAUGAGGAUCACCCAUGUGAGGACCGGGAGACACACGA [Exclusion Tryptophan B GF11]
apparent KD of MS2 coat protein (input ligand: arginine 13.2 mM): 164 nM | apparent KD of MS2 coat protein (input ligand: none): 288 nM | apparent KD of MS2 coat protein [1]: 288 nM | apparent KD of MS2 coat protein [3]: 404 nM | apparent KD of MS2 coat protein [2]: 308 nM

AUUAAGGAUAUGUAGACGGCGGAGAAGAGACGAGGACCGGUACGGCCGCCACUCGUGUUAGUUAACAUGAGGAUCACCCAUGUAA [#07 Tryptophan A Same State]
apparent KD of MS2 coat protein (input ligand: arginine 13.2 mM): 51.3 nM | apparent KD of MS2 coat protein [1]: 56.1 nM | apparent KD of MS2 coat protein [3]: 69.6 nM

UCGUGUGUUUCGGAUACCAGUGAAAUCGAUACAUGAGGAUCACCCAUGUGAGAGGAUGUACACCCUUGGCAGCUGUCUGUAUCGG [asczmullin]
apparent KD of MS2 coat protein (input ligand: arginine 13.2 mM): 40.6 nM | apparent KD of MS2 coat protein (input ligand: none): 54.2 nM | apparent KD of MS2 coat protein [1]: 58.6 nM | apparent KD of MS2 coat protein [3]: 43.8 nM | apparent KD of MS2 coat protein [2]: 43 nM

GGCUAACAUGAGGAUCACCCAUGUAUUGAUACCAGUAUUUGAAAAUACCCUUGGCAGCAAAUGAAGAGCGUAGCAGGGUCGAUUA [theeternabot_sameState_MS2_Theo_A_7]
apparent KD of MS2 coat protein (input ligand: arginine 13.2 mM): 10 nM | apparent KD of MS2 coat protein [1]: 17 nM | apparent KD of MS2 coat protein [2]: 12.6 nM

AGAAUGUAAUAUGGCAAAGUUAUAACCGAAGGAGCGCCGAAUAAGGCAGGUAGGUCGCGGAAACAUGAGGAUCACCCAUGUCCAU [Arginine A Same State; Euphoria Solution 3]
apparent KD of MS2 coat protein (input ligand: arginine 13.2 mM): 18.1 nM | apparent KD of MS2 coat protein (input ligand: none): 17.3 nM | apparent KD of MS2 coat protein [1]: 19 nM | apparent KD of MS2 coat protein [3]: 14.4 nM | apparent KD of MS2 coat protein [2]: 18 nM

AAACAACAUGAGGAUCACCCAUGUACCGAUACCAGCCAAAUAUAAGGCCCUUGGCAGCGGAGUAAAUCCGGAGGACAAUGGGUAA [Same State Theophylline A GF5]
apparent KD of MS2 coat protein (input ligand: arginine 13.2 mM): 8.62 nM | apparent KD of MS2 coat protein (input ligand: none): 39 nM | apparent KD of MS2 coat protein [1]: 39.2 nM | apparent KD of MS2 coat protein [3]: 76.9 nM | apparent KD of MS2 coat protein [2]: 28.3 nM

CAGUCAGUCAGUCAAUGAGUGAGGCAUGAAGGAGCGUGGGAAACCACAGGUAGGUCGCAUGCGAAACAUGAGGAUCACCCAUGUU [SSArg A #3]
apparent KD of MS2 coat protein (input ligand: arginine 13.2 mM): 29.4 nM | apparent KD of MS2 coat protein (input ligand: none): 47.9 nM | apparent KD of MS2 coat protein [1]: 42.5 nM | apparent KD of MS2 coat protein [3]: 51.9 nM | apparent KD of MS2 coat protein [2]: 26.3 nM

AGCUCGCAUCCUCUAGCGUCAAAGACGCCUCGAGGACCGGUACGGCCGCCACUCGAUAUGAGGAUCACCCAUAUCAAAGCGAGCA [TrypAX 2 #SwitchBubble #AlternativeMS2 #MS2Late #CuTurnoff]
apparent KD of MS2 coat protein (input ligand: arginine 13.2 mM): 32.7 nM | apparent KD of MS2 coat protein (input ligand: none): 53.8 nM | apparent KD of MS2 coat protein [1]: 59.5 nM | apparent KD of MS2 coat protein [3]: 75.5 nM | apparent KD of MS2 coat protein [2]: 581 nM

GGGUGGUAGGCGGCCGCCACUGAUUUUUAUAUAUAUAUAACAUGAGGAUCACCCAUGUAGAUAUGCAGGACCGGGCCUGUUGUUU [aaaM]
apparent KD of MS2 coat protein (input ligand: arginine 13.2 mM): 21.7 nM | apparent KD of MS2 coat protein (input ligand: none): 25 nM | apparent KD of MS2 coat protein [1]: 37.8 nM | apparent KD of MS2 coat protein [3]: 46.1 nM | apparent KD of MS2 coat protein [2]: 28.3 nM
